Measurements: the supplement of paper PMC12042874
± gives the uncertainty stated by the source.

Assay: amyloid nucleation score (Sup35N fusion, yeast selection) (log enrichment); library NNK3; higher = more nucleation; inactive = no reads after selection
Outline: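 Peptides of 20 random codons, each fused to Sup35N, were expressed in psi-negative yeast. Cells were induced with 100 μM copper sulfate for 24 hours and grown 7 days at 30°C on medium lacking adenine and uracil, and plasmid inserts before and after selection were Illumina-sequenced. Nucleation scores are DiMSum log enrichments of output over input reads, centred on the mode score of non-aggregating sequences, and sequences under 100 input reads were excluded.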

**Q.** Which amyloid nucleation score does the source give for PCRKMIQKIVQM here?
**A.** inactive

**Q.** For PDAVTILGGVYHVVQSWG, which amyloid nucleation score is on record?
**A.** inactive

**Q.** With PDGTQINFN as the substance, how does the amyloid nucleation score read?
**A.** inactive

**Q.** Which amyloid nucleation score does the source give for PDLIDVFGE here?
**A.** inactive

**Q.** Which amyloid nucleation score does the source give for PDLRLMVVCASYPGSATRAM here?
**A.** inactive

**Q.** For PECFVTGIRGTSCCRESVD, which amyloid nucleation score is on record?
**A.** inactive

**Q.** With PEEDRFLTQSPMLRFIITHM as the substance, how does the amyloid nucleation score read?
**A.** inactive

**Q.** With PEKMFPSPVTATRFANCVL as the substance, how does the amyloid nucleation score read?
**A.** inactive

**Q.** With PEPHLKSEKYNCSGDWPLPL as the substance, how does the amyloid nucleation score read?
**A.** inactive

**Q.** Which amyloid nucleation score does the source give for PFAEQRRL here?
**A.** inactive

**Q.** Which amyloid nucleation score does the source give for PFCVGIQFDSEKPLVYFNLL here?
**A.** inactive

**Q.** With PFFCYWVTMKKVIFDTGVFA as the substance, how does the amyloid nucleation score read?
**A.** inactive

**Q.** With PFGGMVLLILNDAFSMVYVS as the substance, how does the amyloid nucleation score read?
**A.** inactive

**Q.** For PFVFTLNDQCGGIRSLICVL, which amyloid nucleation score is on record?
**A.** inactive

**Q.** For PGCAAWRRSYVS, which amyloid nucleation score is on record?
**A.** inactive

**Q.** With PGDNIYILMGVYKGILWWAE as the substance, how does the amyloid nucleation score read?
**A.** inactive

**Q.** For PGHIYVML, which amyloid nucleation score is on record?
**A.** inactive

**Q.** Which amyloid nucleation score does the source give for PGLRVNYFRGESLDVYIVEE here?
**A.** 2.14 ± 0.071

**Q.** Which amyloid nucleation score does the source give for PGSFNLILVTYIGLLQKLLH here?
**A.** 0.993 ± 0.16

**Q.** Which amyloid nucleation score does the source give for PHAYTVIDSSRFRPKERLCG here?
**A.** inactive

**Q.** Which amyloid nucleation score does the source give for PHCPELEQQVKCGTS here?
**A.** 0.178 ± 0.26

**Q.** Which amyloid nucleation score does the source give for PHRFYYYWYSWCFILSNSCQ here?
**A.** inactive

**Q.** Which amyloid nucleation score does the source give for PKALVFNLEDDLQGIWSVT here?
**A.** 2.1 ± 0.079

**Q.** Which amyloid nucleation score does the source give for PKIVYLLAFIVKIELVILTD here?
**A.** inactive

**Q.** Which amyloid nucleation score does the source give for PKSYRSGSAVFLGFVSWYRW here?
**A.** inactive

**Q.** For PLFWNGSC, which amyloid nucleation score is on record?
**A.** inactive

**Q.** With PLKCGFGPACPDFYIVEGGK as the substance, how does the amyloid nucleation score read?
**A.** inactive

**Q.** For PLRVRNQYRRLMISANQPDW, which amyloid nucleation score is on record?
**A.** inactive

**Q.** Which amyloid nucleation score does the source give for PLSNNKVVWWYYL here?
**A.** inactive

**Q.** Which amyloid nucleation score does the source give for PLVYLGSLSGDQHWLYFSKE here?
**A.** inactive

**Q.** Which amyloid nucleation score does the source give for PMERGMCLMLGSLVG here?
**A.** 0.942 ± 0.093

**Q.** For PMQTSNLNYCVCYCCAVRTF, which amyloid nucleation score is on record?
**A.** 0.88 ± 0.34

**Q.** With PNCLMS as the substance, how does the amyloid nucleation score read?
**A.** inactive

**Q.** For PNIMCYLVAMCVGLKFPARW, which amyloid nucleation score is on record?
**A.** inactive

**Q.** With PNNSLETTYFRVTWSFE as the substance, how does the amyloid nucleation score read?
**A.** inactive

**Q.** For PNWNYSSLGQTSGQSSRHTS, which amyloid nucleation score is on record?
**A.** inactive

**Q.** With PNYPDLYHFLICSLCSSFVT as the substance, how does the amyloid nucleation score read?
**A.** 1.84 ± 0.076

**Q.** Which amyloid nucleation score does the source give for PPRLTS here?
**A.** inactive

**Q.** Which amyloid nucleation score does the source give for PRCARYYSKLFFCFSDLFLS here?
**A.** 0.233 ± 0.25

**Q.** For PRCDYYQ, which amyloid nucleation score is on record?
**A.** inactive

**Q.** With PRIQKSWVGAM as the substance, how does the amyloid nucleation score read?
**A.** inactive

**Q.** With PRIRD as the substance, how does the amyloid nucleation score read?
**A.** inactive

**Q.** For PRMRA, which amyloid nucleation score is on record?
**A.** inactive

**Q.** With PRQTVISASQPDLNIRGFLC as the substance, how does the amyloid nucleation score read?
**A.** inactive

**Q.** Which amyloid nucleation score does the source give for PSGHV here?
**A.** inactive

**Q.** With PSINWASVTVLGCAHSNFRC as the substance, how does the amyloid nucleation score read?
**A.** 2.29 ± 0.064

**Q.** With PTDDGLSNRMKQMSGHRVLH as the substance, how does the amyloid nucleation score read?
**A.** inactive

**Q.** For PTDIGGNPAGPGEFLIGTGW, which amyloid nucleation score is on record?
**A.** inactive

**Q.** Which amyloid nucleation score does the source give for PTNWLVFYFCSGYAFNSFED here?
**A.** 3.31 ± 0.074

**Q.** Which amyloid nucleation score does the source give for PTSFQYRCVSI here?
**A.** inactive

**Q.** Which amyloid nucleation score does the source give for PTTKYFLYNIYSFV here?
**A.** 2.02 ± 0.079

**Q.** Which amyloid nucleation score does the source give for PVARRVMDYKAGSRV here?
**A.** inactive

**Q.** With PVDKRTSTAVDRFARAMNCQ as the substance, how does the amyloid nucleation score read?
**A.** inactive

**Q.** With PVECLDNDQGFLWPEVRVRG as the substance, how does the amyloid nucleation score read?
**A.** inactive

**Q.** Which amyloid nucleation score does the source give for PVFLCSLLLVPKANSIPGK here?
**A.** inactive

**Q.** Which amyloid nucleation score does the source give for PVGRKLTTFRVNTCLLGYFK here?
**A.** inactive

**Q.** For PVKMGVVLCNKWIYSKGTKN, which amyloid nucleation score is on record?
**A.** inactive

**Q.** For PVLNAAVHDNFFTADHIRKK, which amyloid nucleation score is on record?
**A.** inactive

**Q.** With PVLSRITFSNSSDRI as the substance, how does the amyloid nucleation score read?
**A.** inactive

**Q.** For PVVLLSWELMILLWVNSFAL, which amyloid nucleation score is on record?
**A.** inactive

**Q.** For PVVQCNLFFVMVYTLGIRCV, which amyloid nucleation score is on record?
**A.** -0.579 ± 0.98

**Q.** With PYESHDEGQGNATM as the substance, how does the amyloid nucleation score read?
**A.** inactive

**Q.** For PYFIPYCV, which amyloid nucleation score is on record?
**A.** inactive

**Q.** With PYGICNLKF as the substance, how does the amyloid nucleation score read?
**A.** inactive

**Q.** For PYGLLQFNG, which amyloid nucleation score is on record?
**A.** inactive

**Q.** With PYIRNYSCSGSNQYLWDTSD as the substance, how does the amyloid nucleation score read?
**A.** inactive

**Q.** For PYLLAVNRGESSSSVWLMPM, which amyloid nucleation score is on record?
**A.** inactive

**Q.** For PYSNTKGANELQSYRRYVVS, which amyloid nucleation score is on record?
**A.** inactive

**Q.** With PYSTFLLCQGLTNYMYSSMS as the substance, how does the amyloid nucleation score read?
**A.** inactive

**Q.** Which amyloid nucleation score does the source give for PYWIGNIFVEPSSD here?
**A.** inactive

**Q.** With QAIGSKRT as the substance, how does the amyloid nucleation score read?
**A.** inactive

**Q.** For QALPSRLGSAGFDYWPPAMS, which amyloid nucleation score is on record?
**A.** -0.039 ± 0.53

**Q.** For QATVISRVYNWAGLSDCVVV, which amyloid nucleation score is on record?
**A.** 0.425 ± 0.47

**Q.** With QCCIMAITLDYFASPRYIVR as the substance, how does the amyloid nucleation score read?
**A.** 0.022 ± 0.52

**Q.** With QCQFYTSMMSAR as the substance, how does the amyloid nucleation score read?
**A.** inactive

**Q.** Which amyloid nucleation score does the source give for QCRSLITRWGDSVYCLWTK here?
**A.** inactive

**Q.** For QDFKCRRGNY, which amyloid nucleation score is on record?
**A.** inactive

**Q.** Which amyloid nucleation score does the source give for QDPLVT here?
**A.** inactive

**Q.** For QDVVNPPLFY, which amyloid nucleation score is on record?
**A.** inactive

**Q.** With QELQYLKAGSKF as the substance, how does the amyloid nucleation score read?
**A.** inactive

**Q.** Which amyloid nucleation score does the source give for QEYSGHATSGAHMRWAYSVE here?
**A.** inactive

**Q.** With QFAKIPIALTSVYRIKDGLY as the substance, how does the amyloid nucleation score read?
**A.** inactive

**Q.** With QFCVQRFYGVEKKLLTLWGF as the substance, how does the amyloid nucleation score read?
**A.** 0.088 ± 0.75

**Q.** For QFDLAMMSVVCYVFFMYWFL, which amyloid nucleation score is on record?
**A.** inactive

**Q.** For QFFIFFACLVLVVITLT, which amyloid nucleation score is on record?
**A.** 2.53 ± 0.07

**Q.** For QFKVLYPGREGDAKCHVGAR, which amyloid nucleation score is on record?
**A.** inactive

**Q.** Which amyloid nucleation score does the source give for QFRFSFASYFMRSVSIGWIG here?
**A.** inactive

**Q.** For QGAMVD, which amyloid nucleation score is on record?
**A.** inactive

**Q.** With QGDRLENKTLQVLHEKARSR as the substance, how does the amyloid nucleation score read?
**A.** inactive

**Q.** With QGMALPLTTGGGVNKRTCYG as the substance, how does the amyloid nucleation score read?
**A.** inactive

**Q.** With QGMSAFYYVYGLKLWLHLLL as the substance, how does the amyloid nucleation score read?
**A.** inactive

**Q.** For QGVCWLVV, which amyloid nucleation score is on record?
**A.** inactive

**Q.** For QHLLYSPIEPIVPSVWDIVD, which amyloid nucleation score is on record?
**A.** inactive

**Q.** With QHSFVNSIFSSLGTLRKNLL as the substance, how does the amyloid nucleation score read?
**A.** inactive

**Q.** For QKAVIGM, which amyloid nucleation score is on record?
**A.** inactive

**Q.** For QKEDFIVSLWYRVRLFDRNS, which amyloid nucleation score is on record?
**A.** inactive

**Q.** For QKESYHY, which amyloid nucleation score is on record?
**A.** inactive

**Q.** With QKMCKPVFV as the substance, how does the amyloid nucleation score read?
**A.** inactive

**Q.** With QKMGRGARKCMQLYVMGKDL as the substance, how does the amyloid nucleation score read?
**A.** inactive

**Q.** Which amyloid nucleation score does the source give for QKVVFW here?
**A.** inactive

**Q.** Which amyloid nucleation score does the source give for QLCGLAAWDFFCLVGHILKK here?
**A.** 1.23 ± 0.095

**Q.** For QLIVRSGKDSGVLWNLGQYR, which amyloid nucleation score is on record?
**A.** inactive

**Q.** For QLNGCYCQFWMMKARTTKFH, which amyloid nucleation score is on record?
**A.** 2.86 ± 0.054

**Q.** For QLRACPWYSEVFIEI, which amyloid nucleation score is on record?
**A.** inactive

**Q.** Which amyloid nucleation score does the source give for QLVRQMTKGVG here?
**A.** inactive

**Q.** With QMCVVPTTY as the substance, how does the amyloid nucleation score read?
**A.** inactive

**Q.** With QNGCRLMTCC as the substance, how does the amyloid nucleation score read?
**A.** inactive

**Q.** With QNPTWC as the substance, how does the amyloid nucleation score read?
**A.** inactive

**Q.** Which amyloid nucleation score does the source give for QNVGIVYRTST here?
**A.** -0.928 ± 2.5

**Q.** With QNVRLTMLLFRNKVYS as the substance, how does the amyloid nucleation score read?
**A.** inactive

**Q.** Which amyloid nucleation score does the source give for QPPHKARGACYIRVFYRCTG here?
**A.** 0.226 ± 0.68

**Q.** For QPWFMEVL, which amyloid nucleation score is on record?
**A.** inactive

**Q.** With QQHRSALRVQVHRVCGNSVI as the substance, how does the amyloid nucleation score read?
**A.** inactive

**Q.** Which amyloid nucleation score does the source give for QQIFRDNCPVGSRFIFLSR here?
**A.** inactive

**Q.** For QQNQVSIDGCWV, which amyloid nucleation score is on record?
**A.** inactive

**Q.** With QQRHMLS as the substance, how does the amyloid nucleation score read?
**A.** 0.294 ± 0.25

**Q.** For QQVVSLEGRRTKVTLTYQGS, which amyloid nucleation score is on record?
**A.** 1.04 ± 0.11

**Q.** For QRFVSIFPGI, which amyloid nucleation score is on record?
**A.** inactive

**Q.** For QRMMHFVLCVGFDRGIVPVK, which amyloid nucleation score is on record?
**A.** inactive

**Q.** With QRTFG as the substance, how does the amyloid nucleation score read?
**A.** inactive
